From the supplement of paper PMC10065799, “High-throughput profiling of sequence recognition by tyrosine kinases and SH2 domains using bacterial peptide display” (eLife, 2023) come the findings set out here.

One data set addresses SHP2-C SH2. The data set can be described thus: SH2 binding enrichment of the phosphorylated peptide, bacterial display (enrichment ratio); higher = better substrate or ligand; peptides without Tyr show the background.
The target of the next data set is c-Src SH2. The data set is described as above.
A further data set has as its target Grb2 SH2 (UniProt P62993). Described as above.
A further data set addresses MERTK (UniProt Q12866). The experiment in a line: phosphorylation enrichment, bacterial display (enrichment ratio); higher = better substrate or ligand; peptides without Tyr show the background.
The target in another data set is Fyn (UniProt P06241). Described as above.
Another data set has as its target Jak2 (UniProt O60674). The data set is described as above.
The subject of another data set is c-Src. The data set is described as above.
The target in a further data set is FGFR3 (UniProt P22607). Described as above.
A further data set deals with EPHB1 (UniProt P54762). The data set is described as above.
A further data set deals with EPHB2 (UniProt P29323). The data set is described as above.
For the next data set, the system named is AncSZ. The data set is described as above.
The next data set deals with c-Abl (mouse). The description is as above.
The next data set concerns Fer (mouse). Described as above.
In another data set the target is Hck (UniProt P08631). The description is as above.
A further data set addresses Fes (UniProt P07332). The description is as above.
A further data set addresses FGFR1 (UniProt P11362). The description is as above.
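For SH2 binding enrichment of the phosphorylated peptide, bacterial display in this document: peptide library displayed on the E. coli surface as eCPX fusions, selected cells deep-sequenced, score is each peptide's frequency after selection divided by its frequency in the input.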
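For phosphorylation enrichment, bacterial display in this document: 11-residue human phosphosite peptides and single-mutation variants displayed on the E. coli surface, counted by deep sequencing, each peptide's frequency after selection divided by its frequency in the unselected input library; frequency after pTyr selection over input frequency; kinase dosed for 20-30% of maximal phosphorylation in three min.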

Grb2 SH2, sequence (P62993 whole entry, looked up): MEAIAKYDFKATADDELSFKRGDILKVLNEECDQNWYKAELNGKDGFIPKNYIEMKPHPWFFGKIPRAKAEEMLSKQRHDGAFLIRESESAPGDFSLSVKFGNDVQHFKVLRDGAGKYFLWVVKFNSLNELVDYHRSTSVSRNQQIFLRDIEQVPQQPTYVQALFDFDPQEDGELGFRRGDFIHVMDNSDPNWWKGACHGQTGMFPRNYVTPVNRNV
Hck, sequence (P08631 whole entry, looked up): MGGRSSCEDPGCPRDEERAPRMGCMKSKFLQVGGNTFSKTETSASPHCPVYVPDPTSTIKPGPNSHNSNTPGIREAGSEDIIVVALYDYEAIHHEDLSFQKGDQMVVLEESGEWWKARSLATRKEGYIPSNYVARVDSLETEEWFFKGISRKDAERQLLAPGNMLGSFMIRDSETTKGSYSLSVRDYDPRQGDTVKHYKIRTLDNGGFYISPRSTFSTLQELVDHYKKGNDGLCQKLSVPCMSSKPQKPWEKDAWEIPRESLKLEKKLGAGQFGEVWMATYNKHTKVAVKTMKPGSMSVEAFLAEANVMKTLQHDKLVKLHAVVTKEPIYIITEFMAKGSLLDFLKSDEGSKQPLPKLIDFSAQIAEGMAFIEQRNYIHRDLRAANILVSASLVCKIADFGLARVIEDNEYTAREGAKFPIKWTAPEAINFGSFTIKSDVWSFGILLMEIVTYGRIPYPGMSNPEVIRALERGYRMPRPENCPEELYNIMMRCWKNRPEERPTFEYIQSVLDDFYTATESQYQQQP
Jak2, sequence (O60674 whole entry, looked up): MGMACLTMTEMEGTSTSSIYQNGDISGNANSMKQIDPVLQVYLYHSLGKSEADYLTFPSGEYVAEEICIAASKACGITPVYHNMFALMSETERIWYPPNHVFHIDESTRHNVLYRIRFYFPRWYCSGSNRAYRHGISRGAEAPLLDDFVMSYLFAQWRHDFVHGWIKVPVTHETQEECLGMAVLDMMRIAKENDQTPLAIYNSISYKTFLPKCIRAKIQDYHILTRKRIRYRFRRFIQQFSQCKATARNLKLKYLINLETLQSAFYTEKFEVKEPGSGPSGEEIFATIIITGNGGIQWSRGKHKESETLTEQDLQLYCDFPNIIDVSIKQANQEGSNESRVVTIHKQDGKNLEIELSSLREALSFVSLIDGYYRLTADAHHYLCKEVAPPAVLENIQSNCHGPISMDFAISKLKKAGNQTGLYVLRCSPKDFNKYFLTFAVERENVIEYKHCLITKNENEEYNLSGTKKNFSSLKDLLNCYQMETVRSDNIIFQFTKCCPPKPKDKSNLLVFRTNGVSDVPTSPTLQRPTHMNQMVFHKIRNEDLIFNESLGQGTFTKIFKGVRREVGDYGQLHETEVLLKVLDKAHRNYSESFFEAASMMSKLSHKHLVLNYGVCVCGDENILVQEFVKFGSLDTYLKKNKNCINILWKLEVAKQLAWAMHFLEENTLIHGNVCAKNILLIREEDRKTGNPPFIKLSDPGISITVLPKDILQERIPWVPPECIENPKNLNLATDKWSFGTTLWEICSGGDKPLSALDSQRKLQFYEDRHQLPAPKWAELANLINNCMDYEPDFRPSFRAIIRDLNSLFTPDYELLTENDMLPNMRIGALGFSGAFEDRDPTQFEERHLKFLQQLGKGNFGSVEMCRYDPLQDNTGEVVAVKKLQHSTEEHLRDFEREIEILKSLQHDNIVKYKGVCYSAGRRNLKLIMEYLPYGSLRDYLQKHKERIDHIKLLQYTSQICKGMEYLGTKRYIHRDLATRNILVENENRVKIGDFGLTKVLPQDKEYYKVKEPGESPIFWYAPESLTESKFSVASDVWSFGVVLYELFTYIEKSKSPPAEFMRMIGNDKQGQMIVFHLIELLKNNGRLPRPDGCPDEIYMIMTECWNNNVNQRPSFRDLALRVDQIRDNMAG
EPHB1, sequence (P54762 whole entry, looked up): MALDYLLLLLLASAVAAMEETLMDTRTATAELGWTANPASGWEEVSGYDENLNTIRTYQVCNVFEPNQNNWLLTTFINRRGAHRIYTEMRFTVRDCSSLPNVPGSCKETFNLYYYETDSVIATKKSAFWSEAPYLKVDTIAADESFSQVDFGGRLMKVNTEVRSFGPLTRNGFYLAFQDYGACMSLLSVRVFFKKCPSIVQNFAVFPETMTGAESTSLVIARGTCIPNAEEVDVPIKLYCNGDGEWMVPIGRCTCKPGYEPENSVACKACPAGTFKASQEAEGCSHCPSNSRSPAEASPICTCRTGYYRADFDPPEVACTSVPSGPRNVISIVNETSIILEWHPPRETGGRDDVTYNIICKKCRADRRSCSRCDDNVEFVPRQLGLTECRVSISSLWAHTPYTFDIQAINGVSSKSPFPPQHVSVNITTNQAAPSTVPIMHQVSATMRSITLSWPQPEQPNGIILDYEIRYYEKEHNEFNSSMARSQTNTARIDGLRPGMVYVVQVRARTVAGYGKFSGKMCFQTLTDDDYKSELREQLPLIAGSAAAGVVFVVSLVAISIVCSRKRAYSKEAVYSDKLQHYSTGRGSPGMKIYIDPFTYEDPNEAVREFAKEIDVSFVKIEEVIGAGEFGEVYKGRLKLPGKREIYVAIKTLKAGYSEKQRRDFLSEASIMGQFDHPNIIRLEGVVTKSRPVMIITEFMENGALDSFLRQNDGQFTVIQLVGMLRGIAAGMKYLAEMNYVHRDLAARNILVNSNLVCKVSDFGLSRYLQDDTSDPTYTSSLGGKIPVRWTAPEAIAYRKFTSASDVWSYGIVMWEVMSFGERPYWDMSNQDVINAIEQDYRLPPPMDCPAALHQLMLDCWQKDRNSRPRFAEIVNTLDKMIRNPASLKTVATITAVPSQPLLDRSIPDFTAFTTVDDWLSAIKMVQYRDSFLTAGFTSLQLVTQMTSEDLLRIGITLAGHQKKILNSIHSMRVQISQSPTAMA
MERTK, sequence (Q12866 whole entry, looked up): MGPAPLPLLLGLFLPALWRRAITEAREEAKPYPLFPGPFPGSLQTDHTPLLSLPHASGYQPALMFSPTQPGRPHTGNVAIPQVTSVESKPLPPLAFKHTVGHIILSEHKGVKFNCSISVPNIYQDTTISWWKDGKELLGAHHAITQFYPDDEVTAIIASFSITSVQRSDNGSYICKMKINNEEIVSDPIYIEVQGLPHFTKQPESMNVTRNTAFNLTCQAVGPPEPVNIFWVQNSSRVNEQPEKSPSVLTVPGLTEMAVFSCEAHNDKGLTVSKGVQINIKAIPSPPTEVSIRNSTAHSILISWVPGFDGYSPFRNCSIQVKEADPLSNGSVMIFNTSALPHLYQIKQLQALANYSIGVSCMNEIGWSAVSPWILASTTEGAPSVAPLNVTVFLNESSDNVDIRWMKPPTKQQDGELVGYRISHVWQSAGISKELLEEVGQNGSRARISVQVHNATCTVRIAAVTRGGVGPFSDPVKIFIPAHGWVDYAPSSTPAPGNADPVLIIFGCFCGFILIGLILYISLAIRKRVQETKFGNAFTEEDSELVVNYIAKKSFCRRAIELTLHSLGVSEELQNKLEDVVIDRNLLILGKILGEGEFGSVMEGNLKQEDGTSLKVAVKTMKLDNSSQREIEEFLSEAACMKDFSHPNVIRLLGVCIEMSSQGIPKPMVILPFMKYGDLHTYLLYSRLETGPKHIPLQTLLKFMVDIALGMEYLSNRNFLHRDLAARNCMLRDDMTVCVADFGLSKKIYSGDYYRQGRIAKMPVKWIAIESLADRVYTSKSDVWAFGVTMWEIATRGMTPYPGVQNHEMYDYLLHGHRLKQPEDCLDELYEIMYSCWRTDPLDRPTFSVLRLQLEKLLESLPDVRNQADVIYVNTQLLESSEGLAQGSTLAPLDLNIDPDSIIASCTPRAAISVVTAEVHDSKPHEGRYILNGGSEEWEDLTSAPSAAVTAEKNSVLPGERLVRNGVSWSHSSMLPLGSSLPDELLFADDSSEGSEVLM
FGFR3, sequence (P22607 whole entry, looked up): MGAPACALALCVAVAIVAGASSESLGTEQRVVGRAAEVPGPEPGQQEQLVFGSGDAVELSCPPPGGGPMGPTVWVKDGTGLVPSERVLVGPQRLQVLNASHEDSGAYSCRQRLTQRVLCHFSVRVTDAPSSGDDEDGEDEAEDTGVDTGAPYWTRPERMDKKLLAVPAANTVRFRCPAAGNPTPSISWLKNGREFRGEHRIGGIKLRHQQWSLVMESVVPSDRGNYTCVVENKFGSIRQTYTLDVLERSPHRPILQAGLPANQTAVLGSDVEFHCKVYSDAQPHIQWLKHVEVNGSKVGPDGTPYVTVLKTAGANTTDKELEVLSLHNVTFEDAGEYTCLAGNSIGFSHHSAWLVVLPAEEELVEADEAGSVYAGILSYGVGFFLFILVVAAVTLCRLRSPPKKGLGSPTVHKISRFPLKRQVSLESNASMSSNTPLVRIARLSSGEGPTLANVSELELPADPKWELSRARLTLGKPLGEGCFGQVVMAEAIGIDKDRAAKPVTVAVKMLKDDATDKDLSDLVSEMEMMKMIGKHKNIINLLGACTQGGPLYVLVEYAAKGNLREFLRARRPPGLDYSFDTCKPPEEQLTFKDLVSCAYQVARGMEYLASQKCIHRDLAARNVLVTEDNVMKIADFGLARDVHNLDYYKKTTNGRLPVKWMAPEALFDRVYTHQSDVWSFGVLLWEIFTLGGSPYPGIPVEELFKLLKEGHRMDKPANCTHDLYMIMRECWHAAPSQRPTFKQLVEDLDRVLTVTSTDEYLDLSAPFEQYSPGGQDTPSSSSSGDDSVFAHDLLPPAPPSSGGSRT

Regarding RQQEDYLLYKQ [RARRES1_Y159], the values for the SH2 binding enrichment in the data set with SHP2-C SH2, with c-Src SH2 and with Grb2 SH2 were 0.842, 0.561 and 0.821, respectively. Further, the phosphorylation enrichment with MERTK is 0.631; in the data set with Fyn, 0.547; with Jak2, 2.46; in the data set on c-Src, 0.941; with FGFR3 it was 0.86; with EPHB1 it was 0.793. Further, the phosphorylation enrichment is 0.823 with EPHB2; 1.32 in the data set with AncSZ; 1.39 in the data set on c-Abl (mouse); 1.1 in the data set on Fer (mouse); 0.969 with Hck; 1.65 in the data set with Fes. Moreover, the phosphorylation enrichment in the data set with FGFR1 was found to be 0.743.
In the case of RQSTLYSFFPT [MSH6_Y8_K13T], the SH2 binding enrichment in the data set with SHP2-C SH2 stood at 1.4; in the data set with c-Src SH2, 0.752; with Grb2 SH2, 1. Also, the phosphorylation enrichment in the data set with MERTK was 16.8; with Fyn it was 7.89; in the data set with Jak2 it was 0.824; with c-Src, 7.3; with FGFR3, 7.04; with EPHB1 it was 16.1. Besides, the phosphorylation enrichment with EPHB2 is 21.2; in the data set with AncSZ it was 1.35; in the data set on c-Abl (mouse) it was 3.62; with Fer (mouse), 14.2; in the data set with Hck, 9.63; in the data set with Fes, 1.26. The phosphorylation enrichment with FGFR1 came out at 9.72.
With RREQDYTNLPS [CSF1R_Y923_R921Q], the SH2 binding enrichment with SHP2-C SH2 amounted to 0.821; with c-Src SH2, 0.759; with Grb2 SH2 it was 0.926. Also, the phosphorylation enrichment in the data set with MERTK is 0.466; with Fyn, 0.446; with Jak2, 0.449; in the data set on c-Src, 0.446; with FGFR3, 0.951; with EPHB1 it was 0.573. Moreover, the phosphorylation enrichment with EPHB2 worked out at 0.468; in the data set on AncSZ, 0.805; in the data set with c-Abl (mouse) it was 0.691; in the data set with Fer (mouse), 0.532; in the data set with Hck, 0.492; with Fes, 1.75. The phosphorylation enrichment in the data set with FGFR1 was determined as 1.01.
In the case of RRGTGYTLPLP [MAGEC3_Y152_S155P], the SH2 binding enrichment with SHP2-C SH2 stood at 0.607; with c-Src SH2, 0.956; with Grb2 SH2, 0.853. The phosphorylation enrichment in the data set with MERTK is 0.838; with Fyn, 0.642; in the data set with Jak2, 1.01; in the data set with c-Src it was 0.831; with FGFR3, 0.522; with EPHB1 it was 0.977. For the same sequence, the phosphorylation enrichment was 0.387 with EPHB2; 0.971 in the data set with AncSZ; 0.683 with c-Abl (mouse); 0.424 in the data set on Fer (mouse); 0.607 in the data set with Hck; 0.696 with Fes. For the same sequence, the phosphorylation enrichment in the data set with FGFR1 is 0.651.
As for RSRQIYDAFIM [GRK3_Y109_YF], the SH2 binding enrichment with SHP2-C SH2 stood at 0.592; with c-Src SH2, 0.64; with Grb2 SH2 it was 0.66. Also, the phosphorylation enrichment with MERTK was found to be 7.46; with Fyn, 8.83; with Jak2, 0.359; in the data set on c-Src it was 6.12; with FGFR3, 0.7; in the data set with EPHB1, 2.49. For the same sequence, the phosphorylation enrichment with EPHB2 stood at 2.6; in the data set with AncSZ, 0.51; in the data set on c-Abl (mouse), 9.12; in the data set on Fer (mouse), 9.57; with Hck, 6.86; with Fes, 0.48. Moreover, in the data set with FGFR1, the phosphorylation enrichment is 0.339.
As to RSSGGYEPRGC [FUS_Y239_R244C], the results for the SH2 binding enrichment in the data set with SHP2-C SH2, with c-Src SH2 and with Grb2 SH2 were 0.872, 0.509 and 0.913, respectively. Also, the phosphorylation enrichment came to 0.261 in the data set with MERTK; 0.351 with Fyn; 0.499 in the data set with Jak2; 0.376 in the data set with c-Src; 0.538 with FGFR3; 0.227 with EPHB1. Further, the phosphorylation enrichment with EPHB2 was 0.274; in the data set with AncSZ it was 0.439; in the data set with c-Abl (mouse), 0.539; in the data set on Fer (mouse) it was 0.277; in the data set with Hck, 0.258; with Fes it was 0.533. In addition, the phosphorylation enrichment with FGFR1 was 0.371.
Consider RSSKMYPKTRS [LPL_Y329_L330P], for which the SH2 binding enrichment in the data set with SHP2-C SH2 was found to be 0.556; in the data set with c-Src SH2, 0.486; in the data set with Grb2 SH2 it was 0.916. In addition, the phosphorylation enrichment in the data set with MERTK came out at 0.562; in the data set with Fyn, 0.502; in the data set with Jak2, 1.43; in the data set on c-Src it was 0.614; in the data set with FGFR3 it was 0.624; in the data set with EPHB1, 0.359. In addition, the phosphorylation enrichment in the data set with EPHB2 was 0.151; with AncSZ, 0.601; in the data set with c-Abl (mouse), 1.2; in the data set with Fer (mouse), 0.342; with Hck it was 0.509; with Fes, 0.675. In addition, in the data set with FGFR1, the phosphorylation enrichment was found to be 0.547.
For RSSNTYTLTDV [ALCAM_Y298], the SH2 binding enrichment with SHP2-C SH2 is 0.689; with c-Src SH2 it was 1.19; in the data set with Grb2 SH2, 0.82. Further, the phosphorylation enrichment with MERTK worked out at 0.766; in the data set with Fyn, 1.6; with Jak2, 0.805; in the data set with c-Src it was 1.58; with FGFR3 it was 0.705; in the data set with EPHB1 it was 0.544. Besides, the phosphorylation enrichment with EPHB2 stood at 0.561; with AncSZ, 0.766; with c-Abl (mouse), 0.669; with Fer (mouse), 1.04; in the data set with Hck it was 0.951; in the data set with Fes, 0.921. Further, the phosphorylation enrichment with FGFR1 came out at 0.519.
